Tests used:
[1] = test system: SupT1 cells engineered to express CD33; assay: Activation of BW5 T-cells expressing TetCAR challenged with SupT1 cells engineered to express CD33; format: cell-based; conditions: increasing concentrations of tetracycline
Source text: FIG. 7—Function of the initial TetR construct in comparison with control. (a) TetCAR was expressed in BW5 T-cells. These T-cells were challenged with wild-type SupT1 cells or SupT1 cells engineered to express CD33 in the absence of tetracycline or in the presence of increasing concentrations of tetracycline. […] (b) Control TetCAR which lacks the TiP domain was transduced into BW5. Once again, these T-cells were challenged with wild-type SupT1 cells or SupT1 cells engineered to express CD33 in the absence or in the presence of increasing concentration of Tetracycline.
Signalling through the signalling component may be determined by a variety of methods known in the art. […] Functional readouts, such as clonal expansion of T cells, upregulation of activation markers on the cell surface, differentiation into effector cells and induction of cytotoxicity or cytokine secretion may also be utilised. As an illustration, in the present examples the inventors determined levels of interleukin-2 (IL-2) produced by T-cells expressing a receptor component and signalling component of the CAR system according to the present invention upon binding of antigen to the receptor component in the presence of varying concentrations of an agent. […]

[2] = target: streptavidin (Streptomyces avidinii, UniProt P22629); conditions: biotin mimicking peptide binding streptavidin; read-out: affinity; cited from earlier work
streptavidin, sequence (P22629 37-163): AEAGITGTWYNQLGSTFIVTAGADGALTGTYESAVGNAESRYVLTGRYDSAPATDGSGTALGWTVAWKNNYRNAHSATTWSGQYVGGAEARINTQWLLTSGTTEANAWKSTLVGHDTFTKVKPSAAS

Molecule	concentration of tetracycline at which activation is fully inhibited [1] [nM]	Kd [2] [nM]
CN(C)[C@@H]1C(O)=C(C(N)=O)C(=O)[C@@]2(O)C(O)=C3C(=O)c4c(O)cccc4[C@@](C)(O)[C@H]3C[C@@H]12 [tetracycline]	100	–
Biotin mimicking peptide CHPQGPPC (SEQ ID NO: 9) (Biotin mimicking peptide, ccstreptag)	–	230
Biotin mimicking peptide DVEAWLGAR (SEQ ID NO: 5) (Biotin mimicking peptide, short nanotag)	–	17
Biotin mimicking peptide WSHPQFEK (SEQ ID NO: 7) [streptag II]	–	72000
Biotin mimicking peptide DVEAWLDERVPLVET (SEQ ID NO: 4) (Biotin mimicking peptide, long nanotag)	–	3.6

From patent publication US10654927B2, “Signalling system” (UCL BUSINESS PLC, priority 2014, dated 2020)
